# From the supplement of paper PMC9170038
# System: K4 kissing-loop RNA reporter
# Assay: apparent KD of K4 kissing-loop reporter; higher = weaker reporter binding
# Conditions: Eterna round: R107; input ligand: FMN 200 uM
# Protocol: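 RNA-MaP round R107: designed RNA switches with theophylline, tryptophan, arginine or FMN aptamers are transcribed on-chip within common flanks. They are titrated with a labelled K4 kissing-loop RNA reporter in RNA-MaP buffer (100 mM Tris pH 7.5, 80 mM KCl, 4 mM MgCl2), without ligand or with the indicated ligand. Median apparent KD per design.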
# 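Further: bound reporter read as fluorescence of individual clusters on recovered sequencing chips by microscopy, with normalized cluster intensities fitted with a binding model.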
row,Sequence,apparent KD of K4 kissing-loop reporter [nM]
1,AUUUAUCCGUCCAGCUGAGUGAUGUUUAGCCGAGGACCGGUACGGCCGCCACUCGUAAGAACCUGUUACGUUGGCUCCUGUGGUG [theeternabot_exclusion_KL_Trp_A_49],244
2,UUACGAGUGAUGUUCGAAUAAAUCCAUUCAGAGGAUAUAGUAUUAACUAGAAGGCUGAAACCAACUUCGAGUGAUGUUCGAGGAU [Same State FMN A GF 3],94.5
3,AUAUUGGUUGAGAGUGAUGUUCCUUGUGUUCGAGGACCGGUACGGCCGCCACUCGGGUAGAAAAUAAAAGAUAUGUUUGAUUUUU [BDazzled - #12 SS Tryptophan A],162
4,AAGGGCUAGGCGGCCGCCACUGGUCGUGUACACAUACGAGCCAGUGAUGUUGGUAUUGUGUGCGGCAGGACCGGGCCUAGCCGAA [Exclusion - Tryptophan B (Freestyle 25)],410
5,UUAGCAGUAUACUGCAAGACCUAUACUGAUACCAGAGCCUAUAGGCUCCCUUGGCAGCGGAUCGAGUGAUGUUCGUAAGGUCAUU [AK4.3 SS Theophylline A],651
6,UAUUCUGUUCGAAAGAACGGAAUUUCGGAAGGAGCGAGAGAAAUCUCAGGUAGGUCGCCGAAAUUAUUAGGUAGUGAUGUUACCU [Arginine A K4 5],126
7,UGUCAUUGGUCGGCCGCCACUUCAUAGAGAGUGAUGUUCUUUAAGACGGAUCGAAAGAUCUGUCGAAGGACCGGGACCGAUGACU [FiskerMod 10 - Jieux - Same State - Tryptophan B],924
8,AAACUUGCAGUGAUGUUGCAAGUAGGUGAUACCAGCAUCGAAAGAUGCCCUUGGCAGCACCAAAACAUCACUUAGGUAUCACCAA [(H1)-(H2)-(T1)-(T2)-(H)'-(T)'_Design3],191
9,GGAUAGGACUGAGGAUAUGGUAGUGAUGUUACCAAACUGGUUAAACAUGUCAGAAAACUGGCAUGACCAGAAGGCGGUCCUAUCG [FmnBX 27 U10+G76],104
10,UAACAGGCCCUCACCGUCUUAUUUACAGACCGAGGACCGGUACGGCCGCCACUCGUGAAGUGAUGUUUCAAACAAGCGGUAGGAU,721
11,AAGCUACGCGCGGCCGCCACUGUUUAUGUAUAAAUGCGUCGCUCACUGCUUUAGUGAUGUUGAAGCAGGACCGGGCGAAUGGUAC [theeternabot_exclusion_KL_Trp_B_15],80.9
12,CAUACGCAUGGAGGAUAUGAGAUUUCUCAUAUUAUUGCUUAUUCUCAGUGAUGUUGGGAUUUAAGCUCAGAAGGCCAUGUGUAUG [Ex FMN B 10],187
13,GUGUAAGUGAUGUUUGCACACACGUCGGAUACCAGAGACUUUAGCCUCCCUUGGCAGCCGCCGGCCAUAAGAGCAAGUCGAUUUA [theeternabot_sameState_KL_Theo_A_20],197
14,UGAUACCAGACUGAUACCAGCAGUGAUGUUGCUGAAAAUAAUAAAUGAGUCAAAGACUCGGGCCCUUGGCAGCAGUCUGGUAUCU [TheoBX 8 #SwitchBubble #StaticStem],111
15,UUGCCUCUGGCUGAUACCAGUGAUGCAGGGUAUGAAACAGGGAGUGAUGUUCCCUGCAGCCACCCUUGGCAGCAGUUUAAGUUUG [Exclusion Theophylline B GF 21],182
16,AAGCCAAAGAUUGCUGCGGGUUCCAGAGAUACCAGCCGUAUUGAAGGCCCUUGGCAGCUCGAGUGAUGUUCGAGCCGUCUCUGGC [Lexerati],127
17,UGACUGGAUUGAAGGAGCGCUAAACUCCUAGUGAUGUUAGGGAAACAAGACAAAGUCUUGAGGCAGGUAGGUCGCAAUCUAGUCU [FiskerMod 4 - Jieux - Same State - Arginine B],182
18,CCUUCUCUUGAUAGUGAUGUUAUCAAGGGCAAGGAUAUCAUCUUAAUGAGAAGGUGUCCUUGAUAACAUGGAGGUCUGAAACAGA [Omei KL FMN A Exc C v5],108
19,UGGUCUGCACGAAGGAGCGCCCUGACAGGUUGCUGCCGUGGGCAGUGAUGUUGCUUAGUCCGGCAGGUAGGUCGCGUGCAGACCA,210
20,UUUCCAGAUAAGUGGGAACACUCCAUAACAGAGGAUAUCAGAGCGCUGAGAAGGCUGUUUUACAGUGAUGUUGUAAGUGUGGAGU [FMN A SS t2],153
21,UCCUGCAAUCGACCACGAAAGUGGAUCGAUACCAGAGUCGAAAGACUCCCUUGGCAGCGAGUGAUGUUCGAAGCAGGUAAAUAAA [#SwitchBubble 22 #K4Late],520
22,GAGCGGUGGAGGUUACCGCUAUUCUGAGAAGGAGCGCAGAAGACUGCAGGUAGGUCGCUUAGAGCUUGCAGUGAUGUUGCAAGUU [KL-SSArg-A13],173
23,CGCUGGGCGAGUGAUGUUCGCUCACGUGAUACCAGUGCCAUCCAACACCCUUGGCAGCACGCGGGCAGUGAUGUUGUCCUUGUGG [Exclusion Theophylline A GF7],284
24,GGAUCCACCAGUGAUGUUGGAGAAAACUCUAAGGAUAUGACGAAAGUCAGAAGGUGGUAGACUGGACAAAGUCCGGUCGGAUCCA [FmnA 23 U30],1210
25,AGCUCACACGGAAGGAGCGGAUAGAACUGACAGUUGGGCUCAAGUGAUGUUUGGGCUUGAAUCCAGGUAGGUCGCCGUGUGAGCU [Arg B SS t12],136
26,CCGACUGCAGGAAGGAGCGGCGGUUGGAGUGAUGUUCCAGGUAGUGAUGUUACCAAGAUCCGCCAGGUAGGUCGCCUGUUGCUCA [Same State Arginie B GF 12],156
